Data: patent US20090131638A1 (Eli Lilly, published 2009)

T1: human mature myostatin (dimeric form) (human, UniProt O14793 267-375)
T1 sequence: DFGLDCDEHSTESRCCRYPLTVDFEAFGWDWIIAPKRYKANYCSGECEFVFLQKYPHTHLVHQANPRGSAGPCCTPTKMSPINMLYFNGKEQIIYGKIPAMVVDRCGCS

T2: recombinant human GDF-11 (human, UniProt O95390 299-407)
T2 sequence (looked up): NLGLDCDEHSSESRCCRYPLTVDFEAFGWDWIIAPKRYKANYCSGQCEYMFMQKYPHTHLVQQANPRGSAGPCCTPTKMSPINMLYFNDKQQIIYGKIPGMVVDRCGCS


Assays:
[1] = target: T1, human mature myostatin (dimeric form); experiment: cell-based or functional assay
recombinant human GDF-11 = target: T2, recombinant human GDF-11; experiment: cell-based or functional assay
[2] = target: T1, human mature myostatin (dimeric form); experiment: KINEXA, calculated as KD x kon
Method: (§1) Binding affinity measurements for full-length monoclonal antibodies of the invention are determined using a Sapidyne KINEXA assay. NHS-activated fast-flow sepharose beads (GE Healthcare) are pre-coated with […] and blocked with 10 mg/ml BSA in 1 M Tris-HCl, pH 8.0. Then 2 pM, 4 pM, 40 pM of an antibody of the invention (e.g., 3-74/C1E4) is incubated with various concentration (e.g., 2.4 pM to 10 nM, serial dilutions) of myostatin in running buffer (PBS, 0.005% (v/v) Tween-20 and 1 mg/ml ovalbumin) for 10 hours at room temperature. […] The amount of bead-bound antibody is then quantified by passing a solution of fluorescent (Cy5) labeled goat ant-human Fc antibody (Jackson Immuno Research) diluted 1:4000 in running buffer over the beads. The measured fluorescence signal is proportional to the concentration of free antibody at equilibrium. Each concentration of myostatin is measured in duplicate. […]
(§2) The association rate constant (kₒₙ) for GDF-8 binding is also determined using a Sapidyne KINEXA assay. […] The dissociation rate constant (koff) is calculated using the expression koff=KD×kₒₙ. Full-length monoclonal antibody 3-74/C1E4 (operably linked to an IgG₄ Fc region) was measured using the described assay, the results obtained are listed below in Table 3.

[3] = target: T1, human mature myostatin (dimeric form); experiment: KINEXA kinetic assay, 2 pM antibody mixed with 20 pM GDF-8
Method: as §1, §2

[4] = target: T1, human mature myostatin (dimeric form); experiment: KINEXA equilibrium assay, antibody and myostatin in solution, room temperature
Method: Binding affinity measurements for full-length monoclonal antibodies of the invention are determined using a Sapidyne KINEXA assay. NHS-activated fast-flow sepharose beads (GE Healthcare) are pre-coated with […] and blocked with 10 mg/ml BSA in 1 M Tris-HCl, pH 8.0. Then 2 pM, 4 pM, 40 pM of an antibody of the invention (e.g., 3-74/C1E4) is incubated with various concentration (e.g., 2.4 pM to 10 nM, serial dilutions) of myostatin in running buffer (PBS, 0.005% (v/v) Tween-20 and 1 mg/ml ovalbumin) for 10 hours at room temperature. To determine the free antibody present at equilibrium, each sample is passed through the myostatin-coated beads. The amount of bead-bound antibody is then quantified by passing a solution of fluorescent (Cy5) labeled goat ant-human Fc antibody (Jackson Immuno Research) diluted 1:4000 in running buffer over the beads. The measured fluorescence signal is proportional to the concentration of free antibody at equilibrium. Each concentration of myostatin is measured in duplicate. The equilibrium dissociation constant (KD) is obtained from non-linear regression of the competition curves using a multiple-curve, one-site homogeneous binding model (KINEXA software).

IC50 GDF8 (myostatin/SBE luciferase reporter assay, 293E cells) [1] [nM] | IC50 GDF11 (GDF-11/SBE luciferase reporter assay, 293E cells) (recombinant human GDF-11) [nM] | koff [2] [s⁻¹] | kon [3] [M⁻¹ s⁻¹] | Kd [4] [nM] | Binder
1 | 4 |  |  |  | Fab 3-74/C1E4 (Fab, V domains shown) VH: EVQLVESGGGLVQPGGSLRLSCAASGLTFSRYPMSWVRQAPGKGLEWVSAITSSGGSTYYSDTVKGRFTISRDNAKNTLYLQMNSLRAEDTAVYYCARLPDYWGQGTLVTVSS VL: EIVLTQSPGTLSLSPGERATLSCRASSSVSSSYLHWYAAKPGQAPRLLIYSTSNLVAGIPDRFSGSGSGTDFTLTISRLEPEDFAVYYCQHYSGYHFTFGGGTKVEIK
 |  | 2.08e-06 | 1.49e+06 | 0.00139 | Full-length monoclonal antibody 3-74/C1E4 (operably linked to an IgG4 Fc region) (antibody, V domains shown, also called Mab 3-74/C1E4) VH: EVQLVESGGGLVQPGGSLRLSCAASGLTFSRYPMSWVRQAPGKGLEWVSAITSSGGSTYYSDTVKGRFTISRDNAKNTLYLQMNSLRAEDTAVYYCARLPDYWGQGTLVTVSS VL: EIVLTQSPGTLSLSPGERATLSCRASSSVSSSYLHWYAAKPGQAPRLLIYSTSNLVAGIPDRFSGSGSGTDFTLTISRLEPEDFAVYYCQHYSGYHFTFGGGTKVEIK
